Laboratory results published in US20190284272A1 (published 2019).
Residue numbers refer to the chain shown, from its start.

T1: canine IL-31 protein (Canine_IL31)
T1 chain: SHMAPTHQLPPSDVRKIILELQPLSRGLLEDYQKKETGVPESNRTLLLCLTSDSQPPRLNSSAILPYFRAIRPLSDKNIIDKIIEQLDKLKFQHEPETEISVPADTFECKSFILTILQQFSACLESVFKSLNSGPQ

B1: Feline_11E12 1.1_K46Q (antibody, V domains shown)
VH: QVLLVQSGAEVKKPGASVKIFCKASGYSFTYYDINWLRQAPEQGLEWMGWIFPGDGGTKYNETFKGRLTLTADTSTNTVYMELSSLRSADTAMYYCARGGTSVIRDAMDYWGQGALVTVSS
VL: EIQMTQSPSSLSASPGDRVTITCRASESVDNYGISFMHWYQQKPGQVPKLLIYRASNLESGVPSRFSGSGSGTDFTLTISSLEPEDAATYYCQQSNKDPLTFGQGT
B2: Feline 11E12 1.1 (antibody, V domains shown)
VH: B1 VH
VL: B1 VL with Q46K
B3: Feline 11E12 1.1 FW2 (antibody, V domains shown)
VH: B1 VH
VL: B1 VL with V47P
B4: Feline 15H05 1.1 FW1_2 (antibody, V domains shown)
VH: QVLLVQSGAEVRTPGASVKIFCKASGYSFTSYTIHWLRQAPAQGLEWMGNINPTSGYTENNQRFKDRLTLTADTSTNTAYMELSSLRSADTAMYYCARWGFKYDGEWSFDVWGAGTTVTVSS
VL: DIQMNQSPSSLSASLGDTITVTCRASQGISIWLSWYQQKPGNIPKVLINKASNLHIGVPSRFSGSGSGTDFTLTISSLEPEDAATYYCLQSQTYPLTFGGGTKLEIK
B5: Feline 15H05 2.1 (antibody, V domains shown)
VH: B4 VH with S28G, L37V, A40S
VL: B4 VL with D1E, N5T, L15P, T18R, I19V, V21I, N42K, I43V, V46L, N49Y
B6: Feline 15H05 1.1 FW1 (antibody, V domains shown)
VH: B4 VH
VL: B4 VL with N42K, I43V, V46L, N49Y
B7: Feline 15H05 1.2 (antibody, V domains shown)
VH: B4 VH
VL: EITMTQSPGSLAGSPGQQVTMNCRASQGISIWLSWYQQKPGQHPKLLIYKASNLHIGVPDRFSGSGSGTDFTLTISNLQAEDVASYYCLQSQTYPLTFGGGTKLEIK
B8: Feline 15H05 1.1 FW3 (antibody, V domains shown)
VH: B4 VH
VL: EIQMTQSPSSLSASPGDRVTITCRASQGISIWLSWYQQKPGKVPKLLIYKASNLHIGVPPRFSGSGSGTHFTLTITSLQPEDIATYYCLQSQTYPLTFGGGTKLEIK
B9: Feline 15H05 1.3 (antibody, V domains shown)
VH: B4 VH
VL: EVVLTQSSAFLSRTLKEKATITCRASQGISIWLSWYQQKPNQAPKLLVKKASNLHIGAPSRFSGSGSGTDFTLTISSPEPEDAATYYCLQSQTYPLTFGGGTKLGDQ
B10: Feline 15H05 1.1 (antibody, V domains shown)
VH: B4 VH
VL: B8 VL with P60S, H70D, T76S, Q79E, I83A
B11: Feline 15H05 3.2 (antibody, V domains shown)
VH: B4 VH with T13K, A42E
VL: B7 VL
B12: Feline 15H05 2.2 (antibody, V domains shown)
VH: B4 VH with S28G, L37V, A40S
VL: B7 VL
B13: Feline 15H05 1.1 FW2_3 (antibody, V domains shown)
VH: B4 VH
VL: B8 VL with K42N, V43I, L46V, Y49N
B14: Feline 15H05 1.1 FW2 (antibody, V domains shown)
VH: B4 VH
VL: B4 VL with D1E, N5T, L15P, T18R, I19V, V21I
B15: Feline 15H05 3.1 (antibody, V domains shown)
VH: B4 VH with T13K, A42E
VL: B8 VL with P60S, H70D, T76S, Q79E, I83A
B16: Feline 15H05 VH1 mouse VL (antibody, V domains shown)
VH: B4 VH
VL: B4 VL with S60P, D70H, S76T, E79Q, A83I, K107N
B17: Feline 15H05 1.1 FW1_3 (antibody, V domains shown)
VH: B4 VH
VL: B8 VL with E1D, T5N, P15L, R18T, V19I, I21V
B18: Feline 15H05 VH3 mouse VL (antibody, V domains shown)
VH: B4 VH with T13K, A42E
VL: B4 VL with S60P, D70H, S76T, E79Q, A83I, K107N
B19: Feline 15H05 VH2 mouse VL (antibody, V domains shown)
VH: B4 VH with S28G, L37V, A40S
VL: B4 VL with S60P, D70H, S76T, E79Q, A83I, K107N

Biological target: T1, canine IL-31 protein (Canine_IL31)
Assay: Biacore

Kd	Binder
1.91 nM	B1
0.764 nM	B2
7.02 nM	B3
0.263 nM	B4
1.65 nM	B5
813 nM	B6
3.48 nM	B7
0.13 nM	B8
6.38 nM	B9
0.00504 nM	B10
0.204 nM	B11
0.393 nM	B12
214 nM	B13
0.000431 nM	B14
0.795 nM	B15
0.00246 nM	B16
0.00436 nM	B17
0.00264 nM	B18
2.22 nM	B19
